Holding throughout (details): both partners purified
The target in assay [1] is T1, SARS-CoV-2 RBD (aa 334-527) (Severe acute respiratory syndrome …, UniProt P0DTC2).
T1 construct: also called recombinant RBD; monomeric RBD
In words: SPR. (In SPR one partner is held on a chip, and binding of the other changes the refractive index at the surface.)

Assay [2] concerns the target T2, HKU3-1 S protein ectodomain (Bat SARS coronavirus HKU3-1 (DQ022305), UniProt Q3LZX1).
T2 construct: source: Drosophila S2 cells, secreted, purified (Strep-Tactin XT, Superose 6 SEC)
Nature of the assay: ELISA; […], room temperature; […].

Assay [3] deals with RaTG13 S protein ectodomain (Bat coronavirus RaTG13 (MN996532), UniProt A0ABF7PLN6). Nature of the assay: ELISA; […], room temperature; […].
Assay [4] deals with WIV-1 S protein ectodomain (Bat SARS-like coronavirus WIV1 …, UniProt U5WI05). Nature of the assay: ELISA; […], room temperature; […]. (ELISA stands for enzyme-linked immunosorbent assay.)
The target in assay [5] is T3, BM48-31 S protein ectodomain (Bat coronavirus BM48-31/BGR/2008 …).
T3 construct: also called sarbecovirus BM48-31 S protein
In words: ELISA; […], room temperature; […].

Assay [6] addresses RsSHC014 S protein ectodomain (Bat SARS-like coronavirus RsSHC014 …, UniProt U5WLK5). Nature of the assay: ELISA; […], room temperature; […].
The target of assay [7] is CoVZC45 S protein ectodomain (Bat SARS-like coronavirus CoVZC45 …, UniProt A0A2R3SUW7). Nature of the assay: ELISA; […], room temperature; […].

In general, Kd refers to the concentration at which binding is half-saturated. Low readings indicate a tighter complex, high ones a looser complex. Usually koff stands for the first-order rate constant of dissociation. The kon is a measure of how fast the partners come together. A higher kon goes with faster complex formation.

B1: pT1616 (human monoclonal antibody, IgG1) (antibody, V domains shown)
VH: QVQLVQSGAEVKKPGSSVKVSCKASGGTFSSYTISWVRQAPGQGLECMGRIIPILGIANYAQKFQGRVTITADKSTSIAYMEVSSLRSEDTAVYYCATEVGYSGYGSAEYFNHWGQGTPVTVSS
VL: QSVLTQPPSVSGAPGQRVTISCTGSNSNIGAGYDVHWYQQLPGTAPKLLIYANNNRPSGVPDRFSGSRSGTSASLVITGLQADDEADYYCQSYDSSLTGSLFGGGTKLTVL
notes: also called bnAb pT1616; nAb pT1616; source: HEK293ExPi, transfected, purified from the supernatant (Protein G, SEC)
As for B1, in assay [1], binding was put at a Kd of 0.24 nM, the koff is 0.00019 s⁻¹ and the kon is 780000 M⁻¹ s⁻¹.

B2: pT1616 IgG1 (antibody, V domains shown)
VH: QVQLVQSGAEVKKPGSSVKVSCKASGGTFSSYTISWVRQAPGQGLECMGRIIPILGIANYAQKFQGRVTITADKSTSIAYMEVSSLRSEDTAVYYCATEVGYSGYGSAEYFNHWGQGTPVTVSS
VL: QSVLTQPPSVSGAPGQRVTISCTGSNSNIGAGYDVHWYQQLPGTAPKLLIYANNNRPSGVPDRFSGSRSGTSASLVITGLQADDEADYYCQSYDSSLTGSLFGGGTKLTVL
notes: also called bnAb pT1616; nAb pT1616; source: HEK293ExPi, transfected, purified from supernatant (Protein G, SEC)
B2: the binding result is reported as “binds” in assay [2]; “binds” in assay [3]; “binds” in assay [4]; “no binding (tested: 2 µg/mL antibody)” in assay [5]; “binds” in assay [6]; “binds” in assay [7].

The record behind these values is article PMC11650997 (Journal of Virology, 2024).
